Results: the supplement of paper PMC9876800

Tested on: peptide library, one residue held at a place counted from the S/T acceptor
Experiment: relative phosphorylation of the sub-library (ratio to the mean residue at this position); higher = residue favoured
Method in brief: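 Human or orthologue kinase constructs, purified and recombinant, were incubated under kinase-specific conditions in 384-well plates with biotinylated degenerate peptide sub-libraries. Each sub-library fixed one residue at one position around a central Ser/Thr. Incubations lasted 90 min with peptides at 50 μM and 50 μM ATP spiked with γ-32P-ATP, after which spots on streptavidin membranes were phosphorimaged and quantified by densitometry. Relative sub-library phosphorylation is a ratio to the mean residue at that position.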

Sequence of CAMK1G, construct: aa4-312, human (Q96NX5 4-312, looked up): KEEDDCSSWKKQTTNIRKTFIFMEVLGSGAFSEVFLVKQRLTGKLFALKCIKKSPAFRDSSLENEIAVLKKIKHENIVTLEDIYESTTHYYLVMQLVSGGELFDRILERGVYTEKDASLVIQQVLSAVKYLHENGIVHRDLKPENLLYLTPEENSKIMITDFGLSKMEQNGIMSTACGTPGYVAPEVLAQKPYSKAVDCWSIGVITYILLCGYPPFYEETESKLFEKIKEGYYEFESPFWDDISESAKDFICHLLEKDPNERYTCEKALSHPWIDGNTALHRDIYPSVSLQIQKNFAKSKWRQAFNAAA

CAMK1G, construct: aa4-312, human (from UniProt Q96NX5)
relative phosphorylation
Conditions	at +1	at +2	at +3	at +4	at -1	at -2	at -3	at -4	at -5
A fixed	0.642	0.76	0.621	0.551	0.799	0.862	0.549	0.716	0.628
D fixed	0.415	0.664	0.754	0.687	0.868	0.426	0.285	0.428	0.451
E fixed	0.379	0.584	0.709	0.651	0.562	0.421	0.274	0.548	0.424
F fixed	2.19	0.959	1.5	1.69	0.634	0.743	0.545	0.916	1.01
G fixed	0.693	0.541	0.763	0.665	0.98	0.927	0.395	0.754	0.628
H fixed	0.691	1.37	1.2	0.846	0.991	0.867	0.602	1.08	0.879
I fixed	0.442	1.1	0.904	1.09	0.554	0.413	0.413	0.913	1.26
K fixed	2.37	1.51	1.22	1.02	2.43	1.64	1.95	2.49	1.38
L fixed	0.51	1.09	1.08	1.99	0.684	0.554	0.506	0.979	2.03
M fixed	0.931	0.968	1.01	1.43	0.723	1.02	0.68	0.936	1.29
N fixed	0.894	1.18	1.41	0.972	1.71	1.03	0.48	0.833	0.656
P fixed	0.305	0.403	0.435	0.747	1.17	0.386	0.343	0.496	0.933
Q fixed	1.27	0.908	0.969	0.986	1.05	2.24	0.777	0.936	0.84
R fixed	3.15	1.78	1.53	1.1	1.97	3.14	7.64	2.06	2.08
V fixed	0.463	0.892	0.642	0.67	0.675	0.483	0.366	0.754	0.818
W fixed	0.896	1.08	1.28	1.05	0.575	1.13	0.617	1.17	0.692
Y fixed	0.756	1.22	0.981	0.856	0.63	0.712	0.581	0.991	0.982
pThr fixed	0.933	1.57	0.938	1.1	0.856	0.667	0.447	0.759	0.579
pTyr fixed	0.717	4.89	1.31	0.992	0.749	0.652	0.486	0.704	0.774
